Laboratory results from the DeepSol protein solubility set.

Assay: soluble on expression in E. coli; label from the status in PepcDB or PDB records

Sequence | soluble on expression in E. coli
SPAKTPIYLKSNYSKKGKKCRLRDILSPDMISPPLGDFRHTIHIGKGGECDAFGDMSFLQGNFELLPGKGGRVRPQYGLHGEFTRANSASDASYVETPSPVLKNAISLPTIGGSQALTLPMISTTVFPMTHDNMSEPSTPPAGSEDLEILQMETLLQSISIFRSDPSPVPEEDEPMIDRMEMNEKSCMKKMHSSEKELETFLSVFVNGNGDANGNFNNGNNGDSVFQYEQDMFSIKGDWADRDSGVEEGRLCDSDFEISKSKSQSQESLPQITGSLFSLELDLGPSILDDVLNIMNKPVS | soluble
MATLRIGLVSISDRASSGVYQDKGIPALEEWLTSALTTPFELETRLIPDEQAIIEQTLCELVDEMSCHLVLTTGGTGPARRDVTPDATLAVADREMPGFGEQMRQISLHFVPTAILSRQVGVIRKQALILNLPGQPKSIKETLEGVKDAEGNVVVHGIFASVPYCIQLLEGPYVETAPEVVAAFRPKSARRDVSE | soluble
MGSDKIHHHHHHMKVVTFGEIMLRLSPPDHKRIFQTDSFDVTYGGAEANVAAFLAQMGLDAYFVTKLPNNPLGDAAAGHLRKFGVKTDYIARGGNRIGIYFLEIGASQRPSKVVYDRAHSAISEAKREDFDWEKILDGARWFHFSGITPPLGKELPLILEDALKVANEKGVTVSCDLNYRARLWTKEEAQKVMIPFMEYVDVLIANEEDIEKVLGISVEGLDLKTGKLNREAYAKIAEEVTRKYNFKTVGITLRESISATVNYWSVMVFENGQPHFSNRYEIHIVDRVGAGDSFAGALIYGSLMGFDSQKKAEFAAAASCLKHTIPGDFVVLSIEEIEKLASGATSGRVER | soluble
MGSDKIHHHHHHMAESSFVYNGVEITWLKHAGFRIKGSRVVYIDPYDIPEELEKADVILVTHDHFDHMDVKSIRKLSKDDTVVVHPSGCIIEGFESCEVGVGTEAEVKGVKIKAVPAYNVDKPFHKENCVGYIVGIDGVKIYHAGDTDRIPEMKEIEVDIALLPVGGTYTMNLQEAIEAAKDIRAKYYIPMHFGAIPQTSADPEEFKRKVKGAVILKPLF | not soluble
VRQLSQPLKRLVVAARQFGQGRSVRLPLGPETPSEMAEVYRAFNQMAEDIEQGGRERELMLAGVSHDLRTPLTRLRLSLELLPESEREMVEDMIRDIEDMDAILDQFLAFIRDGRDEPVEEGDLTDLVREVVAPFNQTREQVRMALQPVPAMPLRRVSMKRLLGNLIDNALNHGGGSVEVASYVAGESAAPYVVLSVLDRGQGIDPAEVDSIFNPFIRGDKARGGKGTGLGLAIVKRIAAQHGGSVELRNRDGGGLEARVCLPLGLLLPRGAA | not soluble
SLPHCETLLLEPIEGVLRITLNRPQSRNAMSLAMVGELRAVLAAVRDDRSVRALVLRGADGHFCAGGDIKDMAGARAAGAEAYRTLNRAFGSLLEEAQAAPQLLVALVEGAVLGGGFGLACVSDVAIAAADAQFGLPETSLGILPAQIAPFVVRRIGLTQARRLALTAARFDGREALRLGLVHFCEADADALEQRLEETLEQLRRCAPNANAATKALLLASESGELGALLDDAARQFAEAVGGAEGS | not soluble
MRTIDDRIVHSLNTTVPTASFSGKVDATQTCKELYESLMEAHLSRDKAIKSCIKETSAVVSQLREERAKDSDNLSVIKQLRKEQTKLKLMQSELNVEEVVNDRSLKVFNERCRIHYTPPKIK | soluble
ACDYTCGSACYSSSDVSTAQAAGYKLHEDGETVGSNSYPHKYNNYEGFDFSVSSPYYEWPILSSGDVYSGGSPGADRVVFNENNQLAGVITHTGASGNNFVECT | soluble
MEKKITGYTTVDISQWHRKEHFEAFQSVAQCTYNQTVQLDITAFLKTVKKNKHKFYPAFIHILARLMNAHPEFRMAMKDGELVIWDSVHPCYTVFHEQTETFSSLWSEYHDDFRQFLHIYSQDVACYGENLAYFPKGFIENMFFVSANPWVSFTSFDLNVANMDNFFAPVFTMGKYYTQGDKVLMPLAIQVHHAVCDGFHVGRMLNELQQYCDEWQGGA | soluble
MKVTFMNLEERKKLETKSIDELDLIGKKVCVDTCVVIDGRITELIERGKLKDATIIIPEAVVSELEYQANMGREIGYKGIEELRKLIEKASEHNIKVEYYGERPTREEIFLAKSGEIDAMIRKVAKETNSILLTSDWIQYNLAKAQGIEAYFLEAAEEEVELVLD | not soluble
MDKVPQAVRDYLMEAHQLAAQWSLPNDRGDYINSKSIPIKSVAVIGGGTMGRGIAIAFCLSGFETYLVEVNNKAAEFCKNELEITYKREKAFRRLNDSKVEKLRKNLQITTDFQKLNNCDLIVEAVFEDMKLKKELFTKLDKICKPSCIFGTNTSSLDLNEMSSVLRDPTKVVGIHFFNPANLIRMVEVIYGSKTSSKAVATAFEACRSIKKLPVLVGNCPAFVFNRLLGVYLNQSQKLMYEYGYLPHQIDKIITNFGFLMGPLTVADMNGLDVMEKLKKENGWPASDFEKEVWRQKRYGRKTNKGYYKYDPNTHKKENDIEMEQLIRKFSSAASPNIQILNDQDAVNFLLYPMVNEGLLCIEEGIIHHESLIDIMFILGFGWPVATGGPMRFGWLQGIEKVASTIILWNSLEPNDRTYKVAATLQNVDRKNFAAKL | not soluble
SKNFNYTISFVGSTSNNKFVSFSNQFYEGPKYYWMSNFPLYPGNPGVLQRIEEGERIGNFYTFQYAGLDDNGGWLIYSKDGEVIPIDKGTDEDKRVVGNGLPKFTMSVTHTFRCKNLDLNLYFRGNLGYQIYDVHDLYYGLQDAAPNTNVLESAYKENRKITTGKNVHSSYFVHNGDFMKLDVATLGYTWNINNKWVEKARFYITGRNLFTISGYHRGLDKDAYCVNGMEPGLPYSKNGYYPSSRQFLFGIQLNF | not soluble
MGSDKIHHHHHHMSSVTLSGRGTLGDRQVYRLGYGAMQLAGPGVFGPPKDPEEAVRVLQAAVEAGINHIDTSDFYGPHVTNQLIRKALHPYPDDLCIVTKVSARRDEKGNWLPAMSPAELTQAVEDNLRHLGLEVLEVVNLRSMLSPHGPVEGSLEAPLATLLELKERGLIRHIGLSNVTAKQVADAQKMTPIVCVQNLYNVAHRADDALVDALAAQHIAWVPFFPLGGFTPLQAQELNEVAASLEATPMQVALAWLLQRAPNILLIPGTSSRTHLAENIAAAELVLPAEALRTLDNIATAARR | not soluble
NSKKETVTVGVLQFVSHPALDEIYKGVEEGLKENGYDKGKNLEIIFQNGQADQSKLAIMSQQLVQKKADVLIGIATPAAQALANTTQEIPIILGAITDPVSAGLVKDNQKPGGNITGVSDQSPLSAQMDLLKELIPAAKKIGILYASSEENSRYQVAEAQKAAEAKGLTVKTYAVPSSNEIAQTVQVMTKETDVIYIPTDNTIANAMQTVVGEANRTKTPIIPSVDTMVEQGGLATVGINQHALGVQAGKMAAEVLSGKSQPATTPIYTFNTGDTIINEKQAQKLGITIPAELAKKSKLIN | not soluble
MSLTGGISAFGRMVWEGIQIAHEEKPTVLGEEVELVLLDTRSEKTEAANAAARAIDKEKVLAIIGEVASAHSLAIAPIAEENKVPMVTPASTNPLVTQGRKFVSRVCFIDPFQGAAMAVFAYKNLGAKRVVVFTDVEQDYSVGLSNFFINKFTELGGQVKRVFFRSGDQDFSAQLSVAMSFNPDAIYITGYYPEIALISRQARQLGFTGYILAGDGADAPELIEIGGEAVEGLLFTTHYHPKAASNPVAKKFVEVYKEKYGKEPAALNALGYDAYMVLLDAIERAGSFDREKIAEEIRKTRNFNGASGIINIDENGDEGHHHHHH | not soluble
MSLSNKDIRVVVGMSGGVDSSVTAHVLKEQGYDVIGIFMKNWDDTDENGVCTATEDYNDVIEVCNQIGIPYYAVNFEKEYWDKVFTYFLDEYKKGRTPNPDVMCNKEIKFKAFLDHAMNLGADYVATGHYARIHRHEDGHVEMLRGVDNNKDQTYFLNQLSQQQLSKVMFPIGDIEKSEVRRIAEEQGLVTAKKKDSTGICFIGEKNFKTFLSQYLPAQPGDMITLDGKKMGKHSGLMYYTIGQRHGLGIGGDGDPWFVVGKNLKDNVLYVEQGFHHDALYSDYLIASDYSFVNPEDNDLDQGFECTAKFRYRQKDTKVFVKRENDHALRVTFAEPVRAITPGQAVVFYQGDVCLGGATIDDVFKNEGQLNYVVEGHHHHHH | soluble
MEQSFTADINEINITNGKLDFSDSSLTPKFSAGIYSLNGDITGLSSNEDSRAKIDLKGKVDKYAPVIIKGSVNPLSHDAFTDIDMLFNGIELTTFTPYSGKFAGYAIDKGKLSLGLNYKLSNNKLVAENNVTLDQLTLGEVVNSEEATSLPIKFALSLLKDSDGLEHHHHHH | soluble
MGSSHHHHHHSSGLVPRGSHMFADVETTCCARRTLTTIDEVPGMADETALLDWLGTMREKQPVWQDRYGVWHVFRHADVQTVLRDTATFSSDPTRVIEGASPTPGMIHEIDPPEHRALRKVVSSAFTPRTISDLEPRIRDVTRSLLADAGESFDLVDVLAFPLPVTIVAELLGLPPMDHEQFGDWSGALVDIQMDDPTDPALAERIADVLNPLTAYLKARCAERRADPGDDLISRLVLAEVDGRALDDEEAANFSTALLLAGHITTTVLLGNIVRTLDEHPAHWDAAAEDPGRIPAIVEEVLRYRPPFPQMQRTTTKATEVAGVPIPADVMVNTWVLSANRDSDAHDDPDRFDPSRKSGGAAQLSFGHGVHFCLGAPLARLENRVALEEIIARFGRLTVDRDDERLRHFEQIVLGTRHLPVLAGSSPRQSA | soluble
MSSQIRGSKQHEDVDPVTIKKIEEAYVMLNGPDGAKCSSLLKKNLTKDVIEKLKTKSTKLGANLYDCIRSGVYCLDALVGVYAPDAEAYTLFAPLFDKIIEDYHGLGPDQKQPPVDLGEGKTKEFPPLDPKGKYIKSTRIRCGRSLNGYQFNPCLTEDNYLEMEEKVKKAFSEFSDEELKGTYYPLDGMSKDTQNQLIADHFLFKEGDRHLQYANACNFWPKGRGIFHNNKKTFLIWVNEEDHLRIISMQEGSDVGAVLERLIKGVRGIEKQVQFSRDDRLGWLTFCPTNLGSTVRASVHIALPKLSAREDFKQICDKLDLQLRGIHGEHSESEGGVYDISNRARLGLSEYEAVKKMYDGVKNLIEMEEKET | not soluble
MAFRLAVDCLGFENHPREAIDAVLEYWSYHQELEFILVGDEKTFDGLDYLPKNITKQLASSCIDMTDTPLTARRKVNNSMQKAINLVRDGAADVVISAGSSAVYASLTYDGFGKIHKDVKSAFMSYVPTANNDWFYFLDVGANKNFTGKELYFLGLMADIFVKKTTNKISPRIALLNIGTEIHKGFDYHQEGYQLLNEDKHLNFTGFIEPRFLLDGVCDILVADGYSGNLVLKSMEGTFKTIARLLKQGYKRNPLAGLFSLGILKRIAKRFDYKNNAGAVVIGLNKLALKTHGSADKQQFLSTIRLAHTSLKSDLINAIKSSLDNYEK | soluble
MDSGRLAVIALGGNAIAGPGMDVSVESQTAAVKRASSIIADVLADGWRSVITHGNGPQVGYLSEAFEALPPERPRQPLYIATAMTQAWIGLLLKHSLEEELRRRGLNVLVPVVISRVLVDVSDPSFNNPSKPVGPIYGREEAEELSRRYGWVFKRDPRGGFRRVVPSPRPVSIVDRDLIAEASAESPAVVALGGGGVPVVERPGGVLEPVEAVVDKDLASSLLATQLNADLLVILTDVPGVAVNYGREGERWLRRAAASELKKYLREGHFPPGSMGPKVEAAISFVERTGKPAVIGSLEEARQVLSLQAGTVVMLG | soluble
GPGSMVNATPDMARYCCAVIHSKLRGEKTPEPPASITNEPSPIFVSLKTLDGDLRGCIGNFSAEPLHKQLRDYAVAAAFQDNRFPSVTLAELPMLSCSVCLLHSFEKAHRWDDWEIGVHGIRIRYKNYSATYLPSVMPEQRWDHIQAIRSLMRKAGCGEEVSDAILNELDVTRYQESKSTVAFKSANLGSLPC | soluble
